According to the Human Domainome abundance scans (Beltran et al. 2025):
± gives the uncertainty stated by the source.

Experiment: abundance fitness (aPCA) (normalised: wild type 0, dead -1); higher = more abundant; growth selection in yeast, the domain comes from the species named
Settings: Homo sapiens

Substance | abundance fitness
Homeobox expressed in ES cells 1 N130T, Q9UBX0 | -0.144 ± 0.066
Homeobox expressed in ES cells 1 N125A, Q9UBX0 | -0.36 ± 0.12
Homeobox expressed in ES cells 1 I135V, Q9UBX0 | -0.069 ± 0.073
Homeobox expressed in ES cells 1 I152V, Q9UBX0 | -0.315 ± 0.12
Homeobox expressed in ES cells 1 I154V, Q9UBX0 | -0.028 ± 0.12
Homeobox expressed in ES cells 1 D150A, Q9UBX0 | 0.089 ± 0.12
Homeobox expressed in ES cells 1 P111N, Q9UBX0 | 0.704 ± 0.15
Homeobox expressed in ES cells 1 N118Q, Q9UBX0 | -0.35 ± 0.35
Homeobox expressed in ES cells 1 R128A, Q9UBX0 | -0.277 ± 0.16
Homeobox expressed in ES cells 1 Q117L, Q9UBX0 | -0.548 ± 0.16
Homeobox expressed in ES cells 1 D140E, Q9UBX0 | -0.047 ± 0.07
Homeobox expressed in ES cells 1 K164W, Q9UBX0 | -0.547 ± 0.16
Homeobox expressed in ES cells 1 V122E, Q9UBX0 | 0.12 ± 0.15
Homeobox expressed in ES cells 1 A114T, Q9UBX0 | 0.493 ± 0.057
Homeobox expressed in ES cells 1 Q143M, Q9UBX0 | -0.011 ± 0.19
Homeobox expressed in ES cells 1 G134D, Q9UBX0 | -0.02 ± 0.17
Homeobox expressed in ES cells 1 C131H, Q9UBX0 | 0.419 ± 0.15
Homeobox expressed in ES cells 1 D136F, Q9UBX0 | 0.211 ± 0.24
Homeobox expressed in ES cells 1 I120L, Q9UBX0 | -0.192 ± 0.15
Homeobox expressed in ES cells 1 V129Q, Q9UBX0 | 0.143 ± 0.25
